Measured values: patent US20060258586A1, “Compositions and uses of secreted polypeptide, Zsig98” (priority 2005, published 2006)

How the values were obtained:
[1] = tested on: cisplatin- or syrup of ipecac-induced emesis; conditions: 3 mg/kg i.p.; cited from earlier work
[2] = target: the molecule itself; assay: SDS PAGE of refolded synthetic peptide; self-association
strips of ileum = assay: guinea pig ileum organ bath contractility; conditions: isolated ileum strips
Protocol: In another model, male Hartley Guinea pigs at six weeks of age weighing approximately 0.5 kg are euthanized by carbon monoxide. Intestinal tissue is harvested as follows: 2-3 cm longitudinal sections of ileum 10 cm rostral of the cecum, and 2-3 cm longitudinal sections of duodenum, jejunum, and proximal and distal colon.
Tissue is washed in Krebs Ringer's Bicarbonate buffer containing 118.2 mM NaCl, 4.6 mM KCl, 1.2 mm MgS04, 24.8 mM NaHC03, 1.2 mM KH2P04, 2.5 mM CaCl2 and 10 mM glucose. […] Isometric contractions are measured with a force displacement transducer and recorded on a chart recorder using Po-ne-mah Physiology Platform Software. […]
Varying doses of Zsig98 from 1-400 ng/ml are tested for activity on strips of ileum. Muscle contractions are detected immediately after adding Zsig98 protein and are recorded at concentrations as low as 1 ng/ml or 100 picomolar. The EC 50 of this response is measured. […]
In another model, male Hartley Guinea pigs at six weeks of age weighing approximately 0.5 kg are euthanized by carbon monoxide. […] Isometric contractions are measured with a force displacement transducer and recorded on a chart recorder using Po-ne-mah Physiology Platform Software. […] Muscle contractions are detected immediately after adding Zsig98 protein and are recorded at concentrations as low as 1 ng/ml or 100 picomolar. The EC 50 of this response is measured. […]

## COc1ccccc1CN[C@H]1CCCN[C@H]1c1ccccc1 (relative stereo) [(.+−.) cis-3-(2-methoxybenzylamino)-2-phenyl piperidine]
[1]
  anti-emetic activity: exhibited anti-emetic activity

B1: Mature Zsig98, synthetic, made by native ligation and refolded (PEP05014 and PEP05015) (peptide)
chain: EPAGSAVPAQSRPCVDCHAFEFMQRALQDLRKTACSLDARTETLLLQAERRALCACWPAGH
notes: also called zsig98 peptide; synthetic zsig98
[2]
  binding result: binds

B2: Zsig98: secreted polypeptide; mature form amino acids 35 to 95 of SEQ ID NO:2 (SEQ ID NO:18) (protein, listed as Homo sapiens)
chain: B1 chain
modifications: not fully specified
Strips of ileum
  activity in the presence of 5HT: a secondary contraction is observed
